Data: article PMC6934155

Key:
[1] = molecular target: Rad3/Rad26 (ATR/ATRIP homolog in Schizosaccharomyces pombe) with TAPm-Rad3 (S. pombe) (UniProt Q02099); test: co-IP
[2] = molecular target: Fatty acid synthase (FAS) of S. pombe, co-purified with Rad3/Rad26 (S. pombe) (UniProt Q9UUG0)

Row | Substance | fold of co-precipitation compared with control (CPT-treated cells) [1] [times] | fold of co-precipitation compared with control (MMS-treated cells) [1] [times] | specific (catalytic) activity of co-purified FAS relative to apo-state FAS [2] [%]
1 | Apo-state fatty acid synthase (FAS) of S. pombe with Fas1-FLAG, Q9UUG0 1-2073; Q10289 1-1842 | 1.79 | 2.01 | 
2 | Rad3/Rad26 (ATR/ATRIP homolog in Schizosaccharomyces pombe) with TAPm-Rad3, Q02099 1-2386; P36632 1-614 |  |  | 23.3
